Results reported in PMC3973953.

B1: A. nidulans rlacA (Aspergillus nidulans FGSC A4) (protein)
chain: VALTHKLNGFTITEHPDAEKRELLQKYVTWDDKSLFINGERIMIFGAEIHPWRLPVPSLWRDILQKVKALGFNCVSFYVDWALLEGKPGEYRAEGSFAWEPFFDAASDLGIYLIARPGPYINAEASGGGFPGWLQRLNGTIRSSDQSYLDATENYVSHIGGLIAKYQITNGGPVILYQPDNEYSGGCCGQEFPNPDYFQYVIDQARRAGIVVPTISNDAWPGGHNAPGTGKGEVDIYGHDNYPLGFDCANPDVWPEGNLPTDYRDLHLEISPSTPYALVEYQVGAFDPWGGPGFEQCAALTGYEFERVFHKNTFSFGVGILSLYMTFGGTNWGNLGHPGGYTSYDYGSPIKETREITREKYSELKLLGNFIKSSPGYLLATPGKLTNTTYTNTADLTVTPLLGNGTGSFFVLRHSDYSSQASTPYKLRLPTSAGQLTIPQLGGSLVLNGRDSKVHLVDYDVAGTKILYSTAEVFTWKKFHDGKVLVLYGGPGEHHELAVSSKAKVKVVEGLGSGISSKQIRGAVVVAWDVEPARRIVQIGDLKIFLLDRNSAYNYWVPQLGTETSIPYATEKAVAASVIVKAGYLVRTAYVKGRDLHLTADFNATTPVEVIGAPKTAENLFINGKKAHHTVDKNGIWSTEVGYSPPKIVLPVLEDLKWKSIDTLPEIQPSYDDSPWPDANLPTKNTIYPLRTPTSLYASDYGFHTGYLLFRGHFTANGRESNFSIQTQGGQAFGSSVWLSGTYLGSWTGDNDYQDYNATYTLPSLKAGKEYVFTVVVDNMGLNENWIVGQDEMKKPRGILNYELSGHEASDITWKLTGNFGGEDYVDKVRGPLNEGGLYAERHGYHQPYPPTKSKDWKSSTPLTGLSKPGISFYTASFDLDIKSGWDVPIYFEFGNSTTPAPAYRVQLYVNGWQYGKYVNNIGPQTRFPVPEGILNYKGTNWVAVTLWALEGSGAKLDSFKLVHGIPVRTALDVEGVELPRYQSRKGVY
B2: A. oryzae β-galactosidase (Aspergillus oryzae RIB40) (protein)
chain: ASIKHRLNGFTILEHPDPAKRDLLQDIVTWDDKSLFINGERIMLFSGEVHPFRLPVPSLWLDIFHKIRALGFNCVSFYIDWALLEGKPGDYRAEGIFALEPFFDAAKEAGIYLIARPGSYINAEVSGGGFPGWLQRVNGTLRSSDEPFLKATDNYIANAAAAVAKAQITNGGPVILYQPENEYSGGCCGVKYPDADYMQYVMDQARKADIVVPFISNDASPSGHNAPGSGTGAVDIYGHDSYPLGFDCANPSVWPEGKLPDNFRTLHLEQSPSTPYSLLEFQAGAFDPWGGPGFEKCYALVNHEFSRVFYRNDLSFGVSTFNLYMTFGGTNWGNLGHPGGYTSYDYGSPITETRNVTREKYSDIKLLANFVKASPSYLTATPRNLTTGVYTDTSDLAVTPLIGDSPGSFFVVRHTDYSSQESTSYKLKLPTSAGNLTIPQLEGTLSLNGRDSKIHVVDYNVSGTNIIYSTAEVFTWKKFDGNKVLVLYGGPKEHHELAIASKSNVTIIEGSDSGIVSTRKGSSVIIGWDVSSTRRIVQVGDLRVFLLDRNSAYNYWVPELPTEGTSPGFSTSKTTASSIIVKAGYLLRGAHLDGADLHLTADFNATTPIEVIGAPTGAKNLFVNGEKASHTVDKNGIWSSEVKYAAPEIKLPGLKDLDWKYLDTLPEIKSSYDDSAWVSADLPKTKNTHRPLDTPTSLYSSDYGFHTGYLIYRGHFVANGKESEFFIRTQGGSAFGSSVWLNETYLGSWTGADYAMDGNSTYKLSQLESGKNYVITVVIDNLGLDENWTVGEETMKNPRGILSYKLSGQDASAITWKLTGNLGGEDYQDKVRGPLNEGGLYAERQGFHQPQPPSESWESGSPLEGLSKPGIGFYTAQFDLDLPKGWDVPLYFNFGNNTQAARAQLYVNGYQYGKFTGNVGPQTSFPVPEGILNYRGTNYVALSLWALESDGAKLGSFELSYTTPVLTGYGNVESPEQPKYEQRKGAY

Substrate: O=[N+]([O-])c1ccc(O[C@@H]2O[C@H](CO)[C@H](O)[C@H](O)[C@H]2O)cc1
Experiment: purified protein
Settings: McIlvaine buffer at optimal pH, 37 °C

Row | Protein | Km [µM] | kcat [s⁻¹] | kcat/Km [M⁻¹ s⁻¹]
1 | B1 | 1850 ± 210 | 63.4 ± 0.9 | 34100 ± 1500
2 | B2 | 3020 ± 610 | 46.4 ± 1.2 | 14600 ± 600
